From patent publication US20200407397A1 (RESEARCH FOUNDATION FOR THE STATE UNIVERSITY OF NEW YORK, published 2020) come the findings set out here.

Where a chain is given by its changes, count along the chain named. In names and notes the source's numbering stands. Where no end group is shown, it is not given here.

In assay [1] the target is Lactate dehydrogenase A (LDHA), endogenous (human, UniProt P00338 2-332). Kind of assay: anti-FLAG IP from HEK293, immunoblot for LDHA. (A western blot detects proteins with antibodies after separation by electrophoresis.)
The target in assay [2] is recombinant LDHA (human, UniProt P00338 1-332). Kind of assay: fluorescence anisotropy, labelled peptide with recombinant LDHA. On the procedure: Fluorescence anisotropy was measured in triplicate using a SpectraMax i3 equipped with rhodamine fluorescence polarization module (lex\lem.535 nm/595 nm). Curve fitting was done in KaleidaGraph 4.0.
For orientation: In fluorescence polarisation assays a small probe gives low polarisation when free and higher when bound to something large.

B1: FLCN P228A mutant (FLAG-tagged) (other)
chain: MNAIVALCHFCELHGPRTLFCTEVLHAPLPQGDGNEDSPGQGEQAEEEEGGIQMNSRMRAHSPAEGASVESSSPGPKKSDMCEGCRSLAAGHPGYISHDKETSIKYVSHQHPSHPQLFSIVRQACVRSLSCEVCPGREGPIFFGDEQHGFVFSHTFFIKDSLARGFQRWYSIITIMMDRIYLINSWPFLLGKVRGIIDELQGKALKVFEAEQFGCPQRAQRMNTAFTAFLHQRNGNAARSLTSLTSDDNLWACLHTSFAWLLKACGSRLTEKLLEGAPTEDTLVQMEKLADLEEESESWDNSEAEEEEKAPVLPESTEGRELTQGPAESSSLSGCGSWQPRKLPVFKSLRHMRQVLGAPSFRMLAWHVLMGNQVIWKSRDVDLVQSAFEVLRTMLPVGCVRIIPYSSQYEEAYRCNFLGLSPHVQIPPHVLSSEFAVIVEVHAAARSTLHPVGCEDDQSLSKYEFVVTSGSPVAADRVGPTILNKIEAALTNQNLSVDVVDQCLVCLKEEWMNKVKVLFKFTKVDSRPKEDTQKLLSILGASEEDNVKLLKFWMTGLSKTYKSHLMSTVRSPTASESRN
notes: Full FLCN protein with a point mutation in the FLCN-10 region, expressed in HEK293 cells; not shown: FLAG tag (immunoprecipitated using anti-FLAG agarose)
For B1, the binding result in assay [1] was “no binding”.

B2: FLCN-M222A-FLAG (other)
chain: B1 chain with M222A, A228P
notes: Expressed in HEK293, UOK257 and ccRCC cells; also called M222A mutant; not shown: FLAG tag
On to B2, for which the binding result in assay [1] was “binds”.

B3: FLCN-F226A-FLAG (other)
chain: B1 chain with F226A, A228P
notes: Expressed in HEK293 and UOK257 cells; not shown: FLAG tag
As to B3, the binding result in assay [1] is “no binding”.

B4: FLCN R221A mutant (FLAG-tagged) (other)
chain: B1 chain with R221A, A228P
notes: as for B1
For B4, the binding result in assay [1] is reported as “no binding”.

B5: FLCN-10-Rhodamine B (peptide)
peptide: AQRMNTAFTP
modifications: also: Rhodamine B label, site not given here
notes: Labelled form used for fluorescence anisotropy and for the ex vivo tissue treatment; also called FLCN-10-Rhod-B; Rhodamine-B-labeled FLCN-10
B5: in assay [2], the binding result is “binds”.
